In CN101357942A:

Tests used:
[1] = molecular target: 天然Stx2 (natural Shiga toxin II of enterohaemorrhagic E. coli O157:H7) (肠出血性大肠杆菌(EHEC) O157:H7) (UniProt P09385)
[2] = molecular target: 天然Stx2 (natural Shiga toxin II of enterohaemorrhagic E. coli O157:H7) (肠出血性大肠杆菌(EHEC) O157:H7) (UniProt P09385); experiment: cell-based or functional assay

Chain of UniProt P09385 (P09385 23-319, chain 1 of 2): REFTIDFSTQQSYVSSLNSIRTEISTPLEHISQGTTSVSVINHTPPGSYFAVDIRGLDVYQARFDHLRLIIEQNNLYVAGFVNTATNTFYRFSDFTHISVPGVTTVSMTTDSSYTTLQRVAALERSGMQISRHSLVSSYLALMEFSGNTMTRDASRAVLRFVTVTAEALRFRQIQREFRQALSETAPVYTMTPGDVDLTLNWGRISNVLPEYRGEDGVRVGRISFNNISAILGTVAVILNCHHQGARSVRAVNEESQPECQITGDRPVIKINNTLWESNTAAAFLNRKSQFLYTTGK
Chain of UniProt P09385 (P09386 20-89, chain 2 of 2, further chain): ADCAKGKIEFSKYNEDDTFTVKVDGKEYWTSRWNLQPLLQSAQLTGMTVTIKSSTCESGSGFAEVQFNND

B1: 1F2Fab抗体 (recombinant Fab of 1F2, expressed from Pcomb3X-1F2Fab in E. coli XL-blue) (Fab, V domains shown)
VH: SGGGLVQPGGSLKLSCAASGFTFSVYGMSWVRQTPDKRLELVATINNNGGSTYYPDSVKGRFTISRDNAKNTLYLQMSSLKSEDTAMYYCASIPLFGNYWGQGTSVTVSS
VL: MTQTPLSLPVSLGDQASISCRSSQSIVHSNGNTYLEWYLQKPGQSPKFLIYKVSRFSGVPDRFSGSGSGTDFTLKISRVEAEDLGVYYCFQGSHVPWTFGGGTKLEIKR
affinity relative to parental mAb 1F2 [1]: 85%
对Stx2细胞毒作用的抑制率 (Vero cells, MTT) [2]: 83%
